Like-named read-outs stand apart in the source and are kept apart here.
How the values were obtained:
[1] = biological target: T1, JAK2 catalytic domain, JAK2JH1 (UniProt O60674 840-1128); test: steady-state enzyme kinetics
[2] = biological target: T1, JAK2 catalytic domain, JAK2JH1; test: cell-based or functional assay
[3] = biological target: T1, JAK2 catalytic domain, JAK2JH1; test: steady-state enzyme kinetics; remark: listed apart in the source

T1 sequence (O60674 840-1128): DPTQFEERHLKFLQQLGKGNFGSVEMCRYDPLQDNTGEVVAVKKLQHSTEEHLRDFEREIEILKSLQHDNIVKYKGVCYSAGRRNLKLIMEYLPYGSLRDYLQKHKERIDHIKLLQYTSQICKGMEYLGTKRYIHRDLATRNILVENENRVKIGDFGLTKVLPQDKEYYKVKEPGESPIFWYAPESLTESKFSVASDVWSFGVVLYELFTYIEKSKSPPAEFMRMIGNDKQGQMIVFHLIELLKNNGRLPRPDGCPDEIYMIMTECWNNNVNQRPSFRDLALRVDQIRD

B1: SOCS3_(22–225)ΔPEST in complex with elongins B and C (complex)
chain 1: LKTFSSKSEYQLVVNAVRKLQESGFYWSAVTGGEANLLLSAEPAGTFLIRDSSDQRHFFTLSVKTQSGTKNLRIQCEGGSFSLQSDPRSTQPVPRFDCVLKLVHHYMGSGSGSGSAYYIYSGGEKIPLVLSRPLSSNVATLQHLCRKTVNGHLDSYEKVTQLPGPIREFLDQYDAPL
chain 2: MDVFLMIRRHKTTIFTDAKESSTVFELKRIVEGILKRPPDEQRLYKDDQLLDDGKTLGECGFTSQTARPQAPATVGLAFRADDTFEALCIEPFSSPPELPDVMKPQDSGSSANEQAVQ
chain 3: MYVKLISSDGHEFIVKREHALTSGTIKAMLSGPGQFAENETNEVNFREIPSHVLSKVCMYFTYKVRYTNSSTEIPEFPIAPEIALELLMAANFLDC
Ki [1]: 1200 ± 300 nM
IC50 of inhibition of the kinase domain's activity (Figure 2A) [2]: 1500 nM
Ki [3]: 1500 ± 700 nM

From PMC3299805 (Immunity, 2012)
